Measurements as given in article PMC12328718.

Biological target: T1, SHMT2 K281S-R284S K302S;R305S (UniProt P34897)
T1 sequence: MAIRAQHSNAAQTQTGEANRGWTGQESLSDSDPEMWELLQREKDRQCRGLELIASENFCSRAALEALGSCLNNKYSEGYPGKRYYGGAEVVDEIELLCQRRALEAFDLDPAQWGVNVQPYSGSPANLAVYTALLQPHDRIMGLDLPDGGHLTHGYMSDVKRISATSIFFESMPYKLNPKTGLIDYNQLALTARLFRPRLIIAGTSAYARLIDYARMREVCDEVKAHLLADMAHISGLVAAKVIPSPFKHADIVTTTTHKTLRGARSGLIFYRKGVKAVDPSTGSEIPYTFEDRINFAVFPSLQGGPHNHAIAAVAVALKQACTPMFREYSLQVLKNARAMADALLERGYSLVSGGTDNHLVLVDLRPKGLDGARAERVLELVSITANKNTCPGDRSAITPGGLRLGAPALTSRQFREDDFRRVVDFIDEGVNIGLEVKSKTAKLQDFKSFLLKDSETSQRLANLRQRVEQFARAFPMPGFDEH
Assay: EMSA
Conditions: EMSA: 20 mM HEPES pH 7.4, 150 mM NaCl, 20 ug/ml BSA, 0.1 ug tRNA, RNase inhibitor, 8% glycerol, 25 C, 30 min; 4% native PAGE in 0.5x TBE

GGGAUAAAGAAAAAAGCGGUGAGUGGGCGAACUACAAUUCCCAAAAGGCCACAAAGGGGCCACCACUACGCAUGCGUAGAUCCCUCCCGUUAGCUUUGGCGCCUCAGCGAGCUCUUCUCGCGCAUGCGUUCUCCGAACGGUCUUCUUCCGACAGCUUGCUGCCCUAGACCAGAGUUGGUGGCUGGACCUCCUGCGACUUCCGAGUUGCG [UTR2 RNA]
Kd: 1.6 µM
